Results published in patent US20160011207A1, “DIAGNOSIS AND THERAPY OF CHRONIC INFLAMMATION-INDUCED DISORDERS” (VIRGINIA COMMONWEALTH UNIVERSITY, priority 2012, published 2016).
“Also recorded” adds a separate entry of the source.

Columns and labels:
[1] = tested on: primary adipocytes, myoblasts and hepatocytes; test: Insulin sensitizing effects of IGFBP-3 in cells treated with proteases and inhibitors (Example 7); assay type: cell-based; details: Example 7, written in present tense
Excerpt: The levels of the three NSPs and IGFBP-3 protease activity in sera from lean and obese mice fed with CD and HFD, respectively, for 16 weeks are investigated using Western immunoblotting, ELISAs and an IGFBP-3 protease activity assay. Further, the impact of PR3-induced proteolysis and inhibitors (Prolastin and a small peptide inhibitor) on insulin sensitizing effects of IGFBP-3 in primary adipocytes (Invitrogen/Life Technologies, Grand Islands N.Y.), myoblasts and hepatocytes (Eton Bioscience, Research Triangle Park, N.C.) is investigated. The cells are treated with IGFBP-3 or PR3 proteolyzed IGFBP-3 fragments with and without insulin, and analyzed for glucose uptake, levels of insulin receptor substrates (IRSs), glucose transporters (GLUTs), adiponectin (in adipocytes) and intracellular glycogen content (in hepatocytes) using a glucose uptake assay, qRT-PCR, Western immunoblotting and a glycogen assay kit. Further experiments are performed to treat cells with IGFBP-3 and PR3 in the presence and absence of Prolastin or the small peptide inhibitor(s) described herein. The inhibitory effects of NE and CG on IGFBP-3's insulin-sensitizing effects are also determined using similar laboratory methods. The involvement of IGFBP-3R on the insulin signaling pathway is also investigated by manipulating endogenous IGFBP-3R expression using IGFBP-3R siRNAs. […]

PR3 = molecular target: T1, PR3 (Homo sapiens, UniProt P24158); test: In vitro IGFBP-3 proteolysis by PR3, Western immunoblotting; assay type: biochemical; details: for inhibition of PR3-induced IGFBP-3 proteolysis (Western immunoblot, in words): FIG. 8 and 9A
T1 sequence (P24158 28-248): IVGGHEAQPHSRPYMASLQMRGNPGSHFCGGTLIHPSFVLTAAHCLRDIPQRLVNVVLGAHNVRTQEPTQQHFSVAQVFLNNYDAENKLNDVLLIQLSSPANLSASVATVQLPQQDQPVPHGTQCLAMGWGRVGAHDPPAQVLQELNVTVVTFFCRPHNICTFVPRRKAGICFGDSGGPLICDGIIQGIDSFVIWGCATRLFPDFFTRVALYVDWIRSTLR
Procedure: FIG. 4A-B. A, increased serum PR3 and IGFPR-3 proteolysis in high fat diet (HFD) mice. The increased IGFBP-3 proteolytic fragments and PR3 were detected in HFD compared with chow diet (CD) fed mice by Western immunoblotting using mouse IGFBP-3 or PR3 specific antibodies. […] IGFBP-3 proteolytic fragments were detected in recombinant IGFBP-3 (100 ng) and PR3 (500 ng) treated samples by Western immunoblotting.
FIG. 8. […] Recombinant IGFBP-3 (100 ng) was proteolyzed by treatment with […] PR3 for 60 min. at 37° C. (lane 2).
(§1) FIG. 9A-C. Inhibitory effect of the small peptide on NSP-induced IGFBP-3 proteolysis. […] Recombinant IGFBP-3 (100 ng) was proteolyzed by treatment with 100 nM PR3 for 60 min at 37° C. (lane 3). […] B. In vitro IGFBP-3 proteolysis by NE and CG. […] Recombinant IGFBP-3 (100 ng) was proteolyzed by treatment with NE (70 nM) and CG (200 nM) for 20 min. at 37° C. The treated samples were subject to Western immunoblotting using polyclonal IGFBP-3 antibodies. NE and CG proteolyze IGFBP-3 (lanes 2 and 7). […] C. The sequence of small inhibitory peptide (LIRCAML). Putative small inhibitory peptide binding site on PR3 ([…]) and NE ([…]), of which sequences are well conserved in both PR3 and NE.
Since it has been reported that PR3 appears to contribute to progression of chronic inflammatory diseases, we characterized PR3 as a specific IGFBP-3 protease in obese condition. The experiments were carried out using recombinant PR3 and IGFBP-3, and Western immunoblotting with IGFBP-3 specific antibody.
This peptide and/or suitable variants thereof can thus be used to treat individuals with chronic inflammation (obesity)-induced insulin resistance.

NE = molecular target: T2, NE (Homo sapiens, UniProt P08246); test: In vitro IGFBP-3 proteolysis by NE, Western immunoblotting; assay type: biochemical; details: recombinant IGFBP-3 100 ng; NE 70 nM, 20 min at 37° C.; FIG. 9B
T2 sequence (P08246 30-267): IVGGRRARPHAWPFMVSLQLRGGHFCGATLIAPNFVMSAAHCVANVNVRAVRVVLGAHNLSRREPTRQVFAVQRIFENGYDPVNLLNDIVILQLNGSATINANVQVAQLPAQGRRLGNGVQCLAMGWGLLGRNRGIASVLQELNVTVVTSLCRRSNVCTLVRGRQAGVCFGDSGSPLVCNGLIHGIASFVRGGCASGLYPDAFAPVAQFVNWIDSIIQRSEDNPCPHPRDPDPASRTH
Procedure: Inhibitory effect of the small peptide on NSP-induced IGFBP-3 proteolysis. […] B. In vitro IGFBP-3 proteolysis by NE and CG. […] Recombinant IGFBP-3 (100 ng) was proteolyzed by treatment with NE (70 nM) and CG (200 nM) for 20 min. at 37° C. The treated samples were subject to Western immunoblotting using polyclonal IGFBP-3 antibodies.

CG = molecular target: T3, CG (Homo sapiens, UniProt P08311); test: In vitro IGFBP-3 proteolysis by CG, Western immunoblotting; assay type: biochemical; details: recombinant IGFBP-3 100 ng; CG 200 nM, 20 min at 37° C.; FIG. 9B
T3 sequence (P08311 21-244): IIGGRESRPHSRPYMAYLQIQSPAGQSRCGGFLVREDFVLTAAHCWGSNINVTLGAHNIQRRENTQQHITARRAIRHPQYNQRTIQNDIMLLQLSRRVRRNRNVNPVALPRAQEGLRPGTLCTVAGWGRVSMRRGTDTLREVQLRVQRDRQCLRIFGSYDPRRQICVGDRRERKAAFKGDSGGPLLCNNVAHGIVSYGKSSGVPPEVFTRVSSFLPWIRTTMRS
Procedure: as §1

NSPs (PR3/NE/CG) = test: In vitro IGFBP-3 protease assay with NSPs and inhibitors (Example 5); assay type: biochemical; details: recombinant IGFBP-3, NSPs (PR3/NE/CG); example written in present tense
Excerpt: Since PR3, NE and CG appear to be involved in inflammation and metabolic disorders, all three proteases are characterized with respect to IGFBP-3 proteolysis in vitro.

HFD C57BL/6 mice = test: Insulin tolerance test (ITT) in HFD-induced obese mice (Example 6); assay type: in vivo; details: 60 mg/kg AAT for 7 weeks, 0.75 unit/kg insulin i.p., 15, 60, 90 and 120 min after insulin, p<0.05
Procedure: FIG. 10. Insulin tolerance test (ITT).
Assessment of body weight, fed and fasting glucose, intraperitoneal glucose tolerance test (IPGTT) and insulin tolerance test (ITT) were performed at 8, 15 weeks of HFD.
Weekly assessment of body weight was performed. IPGTT and ITT were analyzed at 8, 15 weeks of HFD.
Description of murine models: Six week old male C57BL6/J BomTac mice were obtained from Taconic, Hudson, N.Y., and kept at 22° C. on a 12:12-h light-dark cycle, with food and water ad libitum. All mice were placed on a normal rodent diet (ND) D12450B for 1 week and then divided into two groups and fed with ND and high fat diet (HFD) D12492 for 16 weeks. ND (D12450B, calories provided by fat 10%, protein 20%, Carbohydrate 70%) and HFD (D12492, calories provided by fat 60%, protein 20%, Carbohydrate 20%) were from Research Diets, new Brunswick, NJ52.
Insulin tolerance test (ITT): After a 7-day recovery period, an ITT was performed on the same mice. […]
Data Analysis: 1) Mice with HFD feeding and with/without NSP inhibitor treatments awere studied with assessment of body weight, fed and fasting glucose, IPGTT and ITT. Statistical analysis: Differences between groups are determined by ANOVA followed by Turkey post hoc tests or by Student t Test as appropriate. Significance is considered as p<0.05.

NSPs (PR3, NE, and CG) = test: NSP-induced IGFBP-3 proteolysis with inhibitors (Example 10); assay type: biochemical; details: Example 10, written in present tense
Excerpt: The biological impact of NSPs (PR3, NE, and CG) on IGFBP-3 proteolysis and the antitumor actions of IGFBP-3/IGFBP-3R signaling is investigated, e.g. to characterize specific mechanisms by which NSPs modulate the biologic impact of IGFBP-3/IGFBP-3R on cell proliferation, apoptosis in CRC. Accordingly, the impact of NSPs on the antitumor and anti-inflammatory functions of IGFBP-3 in a variety of colon cancer cells (HT-29, Caco-2, HCT116 and LoVo) is investigated using recombinant IGFBP-3 (intact or NSP-proteolyzed fragments), NSPs and their inhibitors. The involvement of IGFBP-3R on IGFBP-3's effects is tested by manipulating endogenous IGFBP-3R expression using additional lentiviral-IGFBP-3-GFP, IGFBP-3R siRNAs, Adeno-IGFBP-3R, NSPs and protease inhibitors in the same cell systems.
Human and mouse specific IGFBP-3 antibodies (Abs)20, IGFBP-3R Abs20, IGFBP-3 protease assay, and adeno-, retro- and lenti-viral plasmids transfused with IGFBP-3, IGFBP-3R or their small hairpin RNAs (shRNAs) are utilized in these investigations.
The differential impact of intact IGFBP-3 and IGFBP-3 fragments on induction of apoptosis, cell proliferation in CRC cells is quantified using a Cell death assay, WST assay and qRT-PCR and immunoblotting.

AOM-DSS-treated mice = test: CAC mouse model, AOM-DSS-treated mice (Example 10); assay type: in vivo; details: AAT 60 mg/kg once weekly, Example 10, written in present tense
Procedure: Studies are also carried out to determine whether administration of the NSP inhibitor (Aralast) inhibits progression of CRC in a CAC mouse model.
First, serum NSPs, IGFBP-3 and IGFBP-3 proteolysis are determined during CRC development in AOM-DSS-treated mice with/without Aralast administration (60 mg/kg body weight once weekly) (6 mice/group). Serum NSPs (PR3,NE,CG), IGFBP-3, and proteolyzed IGFBP-3 and cytokines ([…], IL-6, IL-1β) are analyzed biweekly using Western immunoblotting, IGFBP-3 protease activity assays and mouse specific ELISAs (ELISA kits for PR3 from USCN life science; NE from Biotang USA; CG from CusaBio; TNF-α from Thermo Scientific; and IGFBP-3 from Sigma).
After sacrificing, mice colons are removed and flushed with phosphate-buffered saline (PBS) for macroscopic inspection. Tumor counts are performed in a blinded fashion. Tumor volume (V) is calculated […] by measuring length (L) and width (W) of the tumor with calipers and using the following formula: V={W×L×[(W+L)/2]}×0.52. Using paraformaldehyde fixed or fresh frozen tissue the proteins/genes involved in cell proliferation and inflammatory signaling are examined using Ki67 staining, apoptosis detection kit (Roche Dignostics GmbH) as well as immunoblotting and qRT-PCR for TNF-α, IL-6, IL-1β, NF-κB, IκBκ, IGFBP-3 and IGFBP-3R. […]

[2] = recombinant IGFBP-3 100 ng, 100 nM PR3, 60 min at 37° C.

Compound	effect on protease-induced IGFBP-3 proteolysis and inhibition of IGFBP-3's normal metabolic function [1]	inhibition of IGFBP-3 proteolysis induced by 100 nM PR3 treatment (PR3; peptide at 0.5 μM, recombinant IGFBP-3 100 ng, 100 nM PR3, 60 min at 37° C.)	inhibitory effect on PR3 activity compared with AAT (PR3; peptide at 20 μM versus 100 nM AAT, 100 nM PR3)	inhibition of PR3-induced IGFBP-3 proteolysis (Western immunoblot, in words) (PR3; [2])	inhibition of IGFBP-3 proteolysis by NE (in words) (NE)	inhibition of IGFBP-3 proteolysis by CG (in words) (CG)	NSP-induced proteolysis of IGFBP-3 (Example 5, in words) (NSPs (PR3/NE/CG))	inhibition of PR3-induced IGFBP-3 proteolysis (FIG. 4B, in words) (PR3; recombinant IGFBP-3 (100 ng) and PR3 (500 ng))	blood glucose levels in ITT versus PBS control (HFD C57BL/6 mice)	NSP-induced proteolysis of IGFBP-3 (Example 10, in words) (NSPs (PR3, NE, and CG))	tumor incidence and size compared with untreated mice (AOM-DSS-treated mice)
CC(C)[C@@H]1C(=O)N(S(C)(=O)=O)[C@@H]2CCN(C(=O)/C=C/CN3CCCCC3)[C@H]21.Cl [GW311616A, reference compound]	reverse this effect										
LIRCAML (Synthetic peptide inhibitor)	reverse this effect	more than 50%	comparable to that of 100 nM AAT	potent inhibitory effect; also recorded: inhibited IGFBP-3 proteolysis in a dose-dependent manner (0.5-20 μM); also recorded: inhibited IGFBP-3 proteolysis in a does-dependent manner (0.05-1 μM)	inhibited IGFBP-3 proteolysis by NE or CG in a dose-dependent manner (0.5-1 μM)	inhibited IGFBP-3 proteolysis by NE or CG in a dose-dependent manner (0.5-1 μM)	blocked				
α-1-antitrypsin [AAT]				inhibited		inhibited	blocked	completely inhibited; also recorded: Few IGFBP-3 proteolytic fragments were detected	significantly lower	blocked	decreases tumor incidence and size
